In article PMC5587591, “Enoyl-CoA hydratase-1 regulates mTOR signaling and apoptosis by sensing nutrients” (Nature Communications, 2017):

Tests used:
SIRT3 = target: T1, SIRT3 (Homo sapiens, UniProt Q9NTG7); test: deacetylation of AcK101 ECHS1 peptide, MS; type: biochemical; conditions: 1 mM NAD+, 30 mM HEPES pH 7.0, 37 °C; acetylated 9-residue ECHS1 peptide as co-substrate
T1 construct: recombinant from E. coli (DE3)
T1 sequence (Q9NTG7 102-399): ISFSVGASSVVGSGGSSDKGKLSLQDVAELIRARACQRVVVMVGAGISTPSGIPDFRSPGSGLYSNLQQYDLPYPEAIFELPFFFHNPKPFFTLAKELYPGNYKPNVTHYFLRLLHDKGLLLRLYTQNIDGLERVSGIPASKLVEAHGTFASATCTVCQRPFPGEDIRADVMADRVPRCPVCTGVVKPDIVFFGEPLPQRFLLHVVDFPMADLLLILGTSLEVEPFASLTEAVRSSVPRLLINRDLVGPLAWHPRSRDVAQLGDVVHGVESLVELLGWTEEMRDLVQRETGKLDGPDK

purified protein = substrate: C/C=C/C(=O)SCCNC(=O)CCNC(=O)[C@H](O)C(C)(C)COP(=O)(O)OP(=O)(O)OC[C@H]1O[C@@H](n2cnc3c(N)ncnc32)[C@H](O)[C@@H]1OP(=O)(O)O; test: purified protein; type: biochemical, Homo sapiens; conditions: 50 mM Tris-HCl pH 8.0

Molecule	deacetylation of AcK101 ECHS1 peptide, MS (SIRT3)	Km (purified protein)
NC(=O)c1ccc[n+]([C@@H]2O[C@H](COP(=O)(O)OP(=O)(O)OC[C@H]3O[C@@H](n4cnc5c(N)ncnc54)[C@H](O)[C@@H]3O)[C@@H](O)[C@H]2O)c1 [NAD^+]	SIRT3 deacetylated synthetic AcK101-containing ECHS1 peptide in an NAD^+-dependent manner in vitro	–
ECHS1 (enoyl-CoA hydratase-1) (Homo sapiens) (protein) ASGANFEYIIAEKRGKNNTVGLIQLNRPKALNALCDGLIDELNQALKTFEEDPAVGAIVLTGGDKAFAAGADIKEMQNLSFQDCYSSKFLKHWDHLTQVKKPVIAAVNGYAFGGGCELAMMCDIIYAGEKAQFAQPEILIGTIPGAGGTQRLTRAVGKSLAMEMVLTGDRISAQDAKQAGLVSKICPVETLVEEAIQCAEKIASNSKIVVAMAKESVNAAFEMTLTEGSKLEKKLFYSTFATDDRKEGMTAFVEKRKANFKDQ	–	360 ± 180 µM
ECHS1 (enoyl-CoA hydratase-1) (Homo sapiens; K101Q) (protein) ASGANFEYIIAEKRGKNNTVGLIQLNRPKALNALCDGLIDELNQALKTFEEDPAVGAIVLTGGDKAFAAGADIQEMQNLSFQDCYSSKFLKHWDHLTQVKKPVIAAVNGYAFGGGCELAMMCDIIYAGEKAQFAQPEILIGTIPGAGGTQRLTRAVGKSLAMEMVLTGDRISAQDAKQAGLVSKICPVETLVEEAIQCAEKIASNSKIVVAMAKESVNAAFEMTLTEGSKLEKKLFYSTFATDDRKEGMTAFVEKRKANFKDQ	–	740 ± 430 µM
ECHS1 (enoyl-CoA hydratase-1) (Homo sapiens; K101R) (protein) ASGANFEYIIAEKRGKNNTVGLIQLNRPKALNALCDGLIDELNQALKTFEEDPAVGAIVLTGGDKAFAAGADIREMQNLSFQDCYSSKFLKHWDHLTQVKKPVIAAVNGYAFGGGCELAMMCDIIYAGEKAQFAQPEILIGTIPGAGGTQRLTRAVGKSLAMEMVLTGDRISAQDAKQAGLVSKICPVETLVEEAIQCAEKIASNSKIVVAMAKESVNAAFEMTLTEGSKLEKKLFYSTFATDDRKEGMTAFVEKRKANFKDQ	–	300 ± 80 µM
